This passage reports binding result and Kd results from patent US11780910 (dated 2023).

For test [1], the target named is T1, human ANGPTL3 17-220 (human).
T1 chain: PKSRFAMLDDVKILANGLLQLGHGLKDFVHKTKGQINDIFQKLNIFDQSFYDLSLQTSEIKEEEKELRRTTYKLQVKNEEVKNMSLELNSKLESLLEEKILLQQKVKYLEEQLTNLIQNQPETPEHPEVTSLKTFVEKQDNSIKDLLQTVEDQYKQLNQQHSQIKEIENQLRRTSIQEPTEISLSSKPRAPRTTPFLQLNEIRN
The test can be described thus: SPR, pH 6.0, 37C. In general terms: In SPR one partner is held on a chip, and binding of the other changes the refractive index at the surface.

Test [2] concerns the target T1, human ANGPTL3 17-220. The test can be described thus: SPR, pH 7.4, 37C.
Test [3] addresses T1, human ANGPTL3 17-220. Kind of test: SPR, pH 6.0, 37C.

B1: tmAb2 (antibody, V domains shown)
VH: EVQLLESGGGLVQPGGSLRLSCAASDFNFRSYWMTWVRQAPGKGLEWVSSISSHSTYIYYADSVKGRFTISRDNSKNTLYLQMNSLRAEDTATYYCAREGWYDNWFDPWGQGTLVTVSS
VL: EIVLTQSPGTLSLSPGERATLSCRASQNIRSPYLAWYQQKPGQAPRLLIYGVSSRAAGIPDRFSGSGSGTDFTLTISRLEPEDFAVYYCQQYDDHPYTFGQGTKLEIK
For the molecule B1, in test [1], the binding result is recorded as “no binding”. Besides, the Kd in test [2] was 43 nM.

B2: tmAb3 (antibody, V domains shown)
VH: EVQLLESGGGLVQPGGSLRLSCAASGFNFESYWMTWVRQAPGKGLEWVSSISSHSTYIYYADSVKGRFTISRDNSKNTLYLQMNSLRAEDTATYYCAREGWYDNWFDPWGQGTLVTVSS
VL: EIVLTQSPGTLSLSPGERATLSCRASQNIRSPYLAWYQQKPGQAPRLLIYGVSSRAAGIPDRFSGSGSGTDFTLTISRLEPEDFAVYYCQQYDDHPYTFGQGTKLEIK
As for B2, the results for the Kd in test [2] and in test [3] were 18 nM and 3000 nM, respectively.

B3: tmAb4 (antibody, V domains shown)
VH: EVQLLESGGGLVQPGGSLRLSCAASGFNFESYWMTWVRQAPGKGLEWVSSISSHSTYIYYADSVKGRFTISRDNSKNTLYLQMNSLRAEDTATYYCAREGWYDNWNDPWGQGTLVTVSS
VL: EIVLTQSPGTLSLSPGERATLSCRASQNIRSPYLAWYQQKPGQAPRLLIYGVSSRAAGIPDRFSGSGSGTDFTLTISRLEPEDFAVYYCQQYDDHPYTFGQGTKLEIK
On to B3, for which the binding result in test [1] is listed as “no binding”. In addition, in test [2], the Kd was determined as 56 nM.

B4: tmAb1 (antibody, V domains shown)
VH: EVQLLESGGGLVQPGGSLRLSCAASGFNFRSYWMTWVRQAPGKGLEWVSSISSHSTYIYYADSVKGRFTISRDNSKNTLYLQMNSLRAEDTATYYCAREGWYDNWFDPWGQGTLVTVSS
VL: EIVLTQSPGTLSLSPGERATLSCRASQNIRSPYLAWYQQKPGQAPRLLIYGVSSRAAGIPDRFSGSGSGTDFTLTISRLEPEDFAVYYCQQYDDHPYTFGQGTKLEIK
With B4, the values for the Kd in test [2] and in test [3] were 21 nM and 2000 nM, respectively.

As a reminder, the Kd is the equilibrium constant for the complex coming apart.
